{"source": "patent US20230295571A1", "about": "“COMPOSITIONS AND METHODS FOR STEM CELL CHONDROGENESIS” (Washington University, priority 2020, published 2023)", "molecules": {"B1": {"name": "WNT3A: WNT ligand (R&D Systems) added at 100 ng/ml (protein, UniProt P56704 19-352, looked up)", "Protein Wnt-3a": "SYPIWWSLAVGPQYSSLGSQPILCASIPGLVPKQLRFCRNYVEIMPSVAEGIKIGIQECQHQFRGRRWNCTTVHDSLAIFGPVLDKATRESAFVHAIASAGVAFAVTRSCAEGTAAICGCSSRHQGSPGKGWKWGGCSEDIEFGGMVSREFADARENRPDARSAMNRHNNEAGRQAIASHMHLKCKCHGLSGSCEVKTCWWSQPDFRAIGDFLKDKYDSASEMVVEKHRESRGWVETLRPRYTYFKVPTERDLVYYEASPNFCEPNPETGSFGTRDRTCNVSSHGIDGCDLLCCGRGHNARAERRREKCRCVFHWCCYVSCQECTRVYDVHTCK"}, "B2": {"name": "WNT7B: WNT ligand (R&D system) added at 100 ng/ml (protein, UniProt P56706 25-349, looked up)", "Protein Wnt-7b": "ALSSVVALGANIICNKIPGLAPRQRAICQSRPDAIIVIGEGAQMGINECQYQFRFGRWNCSALGEKTVFGQELRVGSREAAFTYAITAAGVAHAVTAACSQGNLSNCGCDREKQGYYNQAEGWKWGGCSADVRYGIDFSRRFVDAREIKKNARRLMNLHNNEAGRKVLEDRMQLECKCHGVSGSCTTKTCWTTLPKFREVGHLLKEKYNAAVQVEVVRASRLRQPTFLRIKQLRSYQKPMETDLVYIEKSPNYCEEDAATGSVGTQGRLCNRTSPGADGCDTMCCGRGYNTHQYTKVWQCNCKFHWCCFVKCNTCSERTEVFTCK"}}, "key": {"[1]": {"target": "VEGFR2 (Homo sapiens, UniProt P35968)", "sequence (P35968 20-1356, species assumed)": "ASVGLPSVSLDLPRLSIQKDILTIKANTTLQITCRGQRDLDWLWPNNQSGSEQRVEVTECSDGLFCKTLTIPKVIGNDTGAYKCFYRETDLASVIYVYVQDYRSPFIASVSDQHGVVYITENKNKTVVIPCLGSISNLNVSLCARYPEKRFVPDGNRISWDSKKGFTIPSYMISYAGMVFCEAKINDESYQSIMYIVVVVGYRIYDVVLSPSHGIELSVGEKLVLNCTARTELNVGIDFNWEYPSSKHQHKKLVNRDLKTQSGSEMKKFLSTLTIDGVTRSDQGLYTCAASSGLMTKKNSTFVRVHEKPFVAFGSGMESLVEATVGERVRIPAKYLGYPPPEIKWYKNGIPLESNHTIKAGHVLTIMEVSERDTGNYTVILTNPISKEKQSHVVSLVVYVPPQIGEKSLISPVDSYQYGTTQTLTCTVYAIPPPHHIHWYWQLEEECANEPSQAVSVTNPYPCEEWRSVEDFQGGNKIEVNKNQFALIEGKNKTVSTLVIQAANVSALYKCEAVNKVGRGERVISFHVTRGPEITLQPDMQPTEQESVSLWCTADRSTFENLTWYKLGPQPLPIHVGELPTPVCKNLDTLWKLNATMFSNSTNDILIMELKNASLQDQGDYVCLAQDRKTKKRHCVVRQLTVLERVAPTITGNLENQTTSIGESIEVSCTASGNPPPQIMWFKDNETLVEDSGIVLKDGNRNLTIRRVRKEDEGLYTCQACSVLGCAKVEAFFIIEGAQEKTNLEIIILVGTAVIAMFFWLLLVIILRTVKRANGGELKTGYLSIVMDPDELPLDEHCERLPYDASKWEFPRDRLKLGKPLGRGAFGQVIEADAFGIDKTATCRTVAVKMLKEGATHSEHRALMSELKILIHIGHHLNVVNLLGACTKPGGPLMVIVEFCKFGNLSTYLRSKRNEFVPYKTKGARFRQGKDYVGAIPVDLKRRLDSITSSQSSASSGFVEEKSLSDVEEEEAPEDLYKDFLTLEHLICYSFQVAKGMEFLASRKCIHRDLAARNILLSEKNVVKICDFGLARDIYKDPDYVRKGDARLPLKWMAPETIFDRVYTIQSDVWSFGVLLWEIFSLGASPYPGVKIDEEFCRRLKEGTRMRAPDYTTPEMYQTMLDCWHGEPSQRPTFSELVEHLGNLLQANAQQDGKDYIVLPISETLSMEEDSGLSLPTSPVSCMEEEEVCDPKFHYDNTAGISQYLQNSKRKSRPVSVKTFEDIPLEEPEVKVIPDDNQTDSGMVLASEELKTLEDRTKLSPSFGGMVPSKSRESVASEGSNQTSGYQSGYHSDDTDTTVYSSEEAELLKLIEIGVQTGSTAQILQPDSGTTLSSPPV", "conditions": "cell-free assays; cited from earlier work"}, "[2]": {"test_system": "hiPSC chondrogenic pellets", "assay": "Biochemical analysis of cartilaginous matrix production (GAG/DNA) in hiPSC chondrogenic pellets", "format": "cell-based, human", "conditions": "100 ng/ml WNT ligand + TGF-β3 vs TGF-β3 only", "description": "Chondrogenic differentiation. Cells dissociated at the Cp stage were resuspended at 5×10^5 cells per mL in chondrogenic medium consisting of DMEM/F-12, 1% FBS, 1% ITS+, 55 μM β-mertcaptoethanol, 100 nM dexamethasone (DEX; Sigma-Aldrich, #D4902), 1% NEAA (Gibco, #11140050), 1% P/S, 10 ng ml^−1 human transforming growth factor-beta 3 (TGF-β3; R&D Systems, #243-B3-010), 50 μg ml^−1 L-ascorbic acid 2-phosphate (ascorbate; Sigma-Aldrich, #A8960), and 40 μg ml^−1 L-Proline (proline; Sigma-Aldrich, #P5607). Cells were then centrifuged for 5 min at 300×g to form a pellet. Chondrogenic pellets were cultured at 37° C. for up to the timepoints required for various experiments.\nWNT-C59 and ML329 treatment for WNT and MITF inhibition. For WNT-C59 treatment for WNT inhibition during chondrogenesis, pellets were treated with either 10 ng ml^−1 TGF-β3 (control group) or a combination of 10 ng ml^−1 TGF-β3 and 1 μM WNT-C59 in a chondrogenic medium from d0 to d42 as appropriate. […]\nBiochemical analysis of cartilaginous matrix production. […] GAG content, as calculated based on the standard curve, was normalized to double-stranded DNA content to obtain the GAG/DNA ratio."}, "[3]": {"test_system": "CD146/CD166+ cells at the Cp stage", "assay": "FACS for progenitors at the Cp stage", "format": "cell-based, human", "conditions": "with BMP4, 1 μM WNT-C59 or 100 ng/ml WNT3A", "description": "(§1) WNT ligands treatment during chondrogenesis. For WNT ligands treatment during chondrogenesis, pellets were treated with either 10 ng ml^−1 TGF-β3 (control group) or a combination of 10 ng ml^−1 TGF-β3 and 100 ng ml^−1 individual WNT ligand (WNT2B, WNT3A, WNT4, WNT5B, or WNT7B, all from R&D system) in chondrogenic medium from d0 to d42 as appropriate. For WNT ligands treatment during the Cp stage, cells were supplemented with either 20 ng ml^−1 BMP4 (R&D Systems, #314-BP-010) alone (control group), a combination of 20 ng ml^−1 BMP4 and 1 μM WNT-059, or a combination of 20 ng ml^−1 BMP4 and 100 ng ml^−1 WNT3A (R&D Systems, #5036-WN-010) in mesodermal differentiation medium from d7 to d12.\nFACS for progenitors. […] Data were analyzed using FlowJo software (version 10.5.3)."}, "[4]": {"test_system": "hiPSC chondrogenic pellets", "assay": "Immunohistochemistry of collagens in pellets", "format": "cell-based, human", "conditions": "pellet culture", "description": "as §1\nImmunohistochemistry. Histologic sections (8 μm thick) of the pellets were rinsed with xylenes three times and rehydrated before labeling. Antigen retrieval was performed with 0.02% proteinase K for 3 min at 37° C. for COL2A1 and COL6A1 and with pepsin for 5 min at room temperature for COL1A1 and COL10A1 followed by peroxidase quench then serum blocking for 30 min at room temperature. […]"}, "[5]": {"test_system": "hiPSC chondrogenic pellets", "assay": "RT-qPCR of pellets treated with WNT ligands", "format": "cell-based, human", "description": "as §1\nRT-qPCR. RNA of the pellets was isolated using the Total RNA Purification Kit according to the manufacture's protocol (Norgen Biotek, #37500). Reverse transcription of the RNA was performed using SuperScript VILO Master Mix (Thermo Fisher, #11755050). Fast SYBR Green Master Mix (Thermo Fisher, #4385614) was used for reverse transcription-quantitative polymerase chain reaction (RT-qPCR) according to the manufacturer's instructions on the QuantStudio 3 (Thermo Fisher). Gene expression was analyzed using the ΔΔCT method relative to undifferentiated hiPSCs with the reference gene TATA-box-binding protein (TBP)."}}, "data": [{"molecule": "CCN(CC)CCCCNc1ncc2cc(-c3cc(OC)cc(OC)c3)c(NC(=O)NC(C)(C)C)nc2n1", "note": "[PD173074]", "values": [{"measurement": "IC50", "setting": "[1]", "result": "100 to 200", "unit": "nM"}]}, {"molecule": "B1", "values": [{"measurement": "GAG/DNA ratio", "setting": "[2]", "result": "significantly decreased"}, {"measurement": "percentage of CD146/CD166+ cells", "setting": "[3]", "result": "increased"}, {"measurement": "COL1A1 and COL10A1 staining/production", "setting": "[4]", "result": "higher intensity"}, {"measurement": "COL2A1, COL1A1, and COL10A1 expression", "setting": "[5]; 100 ng/ml WNT ligand + TGF-β3 vs TGF-β3 pellets", "result": "increased"}]}, {"molecule": "B2", "values": [{"measurement": "chondrogenic markers (SOX9, ACAN, COL2A1) and osteogenic marker (COL1A1)", "setting": "[5]; 100 ng/ml WNT ligand + TGF-β3 vs TGF-β3 only", "result": "significantly decreased"}, {"measurement": "expression of MITF", "setting": "[5]; 100 ng/ml WNT ligand, relative to TGF-β3 pellets", "result": "significantly lower"}]}]}
